These results are taken from patent publication US20110045008A1 (NEW YORK UNIVERSITY, published 2011).

First the molecules themselves.
B1: ADAMTS-18 C-terminal 385 amino acid fragment (AD-18F) (ligand)
chain: NETLVFEILMQGKNPGIAWKYALPKVMNGTPPATKRPAYTWSIVQSECSVSCGGGYINVKAICLRDQNTQVNSSFCSAKTKPVTEPKICNAFSCPAYWMPGEWSTCSKACAGGQQSRKIQCVQKKPFQKEEAVLHSLCPVSTPTQVQACNSHACPPQWSLGPWSQCSKTCGRGVRKRELLCKGSAAETLPESQCTSLPRPELQEGCVLGRCPKNSRLQWVASSWSECSATCGLGVRKREMKCSEKGFQGKLITFPERRCRNIKKPNLDLEETCNRRACPAHPVYNMVAGWYSLPWQQCTVTCGGGVQTRSVHCVQQGRPSSSCLLHQKPPVLRACNTNFCPAPEKREDPSCVDFFNWCHLVPQHGVCNHKFYGKQCCKSCTRKI
B2: platelet GPIIIa (integrin beta3) on platelets (receptor, human, UniProt P05106 27-788, looked up)
chain: GPNICTTRGVSSCQQCLAVSPMCAWCSDEALPLGSPRCDLKENLLKDNCAPESIEFPVSEARVLEDRPLSDKGSGDSSQVTQVSPQRIALRLRPDDSKNFSIQVRQVEDYPVDIYYLMDLSYSMKDDLWSIQNLGTKLATQMRKLTSNLRIGFGAFVDKPVSPYMYISPPEALENPCYDMKTTCLPMFGYKHVLTLTDQVTRFNEEVKKQSVSRNRDAPEGGFDAIMQATVCDEKIGWRNDASHLLVFTTDAKTHIALDGRLAGIVQPNDGQCHVGSDNHYSASTTMDYPSLGLMTEKLSQKNINLIFAVTENVVNLYQNYSELIPGTTVGVLSMDSSNVLQLIVDAYGKIRSKVELEVRDLPEELSLSFNATCLNNEVIPGLKSCMGLKIGDTVSFSIEAKVRGCPQEKEKSFTIKPVGFKDSLIVQVTFDCDCACQAQAEPNSHRCNNGNGTFECGVCRCGPGWLGSQCECSEEDYRPSQQDECSPREGQPVCSQRGECLCGQCVCHSSDFGKITGKYCECDDFSCVRYKGEMCSGHGQCSCGDCLCDSDWTGYYCNCTTRTDTCMSSNGLLCSGRGKCECGSCVCIQPGSYGDTCEKCPTCPDACTFKKECVECKKFDRGALHDENTCNRYCRDEIESVKELKDTGKDAVNCTYKNEDDCVVRFQYYEDSSGKSILYVVEEPECPKGPDILVVLLSVMGAILLIGLAALLIWKLLITIHDRKEFAKFEEERARAKWDTANNPLYKEATSTFTNITYRGT
notes: whole, on cells; On platelets GPIIIa stands in the GPIIb-IIIa complex; also called platelet GPIIIa(49-66); platelet integrin GPIIIa

Test [1] has as its target B2. The test is described as follows: cell-based or functional assay.
In test [2] the target is T1, C-terminal truncated 35S-ADAMTS-18 (AD-CTD) (Homo sapiens (Human), UniProt Q8TE60 48-1064, 35S methionine).
T1 construct: also called C-terminal deficient ADAMTS-18
T1 sequence: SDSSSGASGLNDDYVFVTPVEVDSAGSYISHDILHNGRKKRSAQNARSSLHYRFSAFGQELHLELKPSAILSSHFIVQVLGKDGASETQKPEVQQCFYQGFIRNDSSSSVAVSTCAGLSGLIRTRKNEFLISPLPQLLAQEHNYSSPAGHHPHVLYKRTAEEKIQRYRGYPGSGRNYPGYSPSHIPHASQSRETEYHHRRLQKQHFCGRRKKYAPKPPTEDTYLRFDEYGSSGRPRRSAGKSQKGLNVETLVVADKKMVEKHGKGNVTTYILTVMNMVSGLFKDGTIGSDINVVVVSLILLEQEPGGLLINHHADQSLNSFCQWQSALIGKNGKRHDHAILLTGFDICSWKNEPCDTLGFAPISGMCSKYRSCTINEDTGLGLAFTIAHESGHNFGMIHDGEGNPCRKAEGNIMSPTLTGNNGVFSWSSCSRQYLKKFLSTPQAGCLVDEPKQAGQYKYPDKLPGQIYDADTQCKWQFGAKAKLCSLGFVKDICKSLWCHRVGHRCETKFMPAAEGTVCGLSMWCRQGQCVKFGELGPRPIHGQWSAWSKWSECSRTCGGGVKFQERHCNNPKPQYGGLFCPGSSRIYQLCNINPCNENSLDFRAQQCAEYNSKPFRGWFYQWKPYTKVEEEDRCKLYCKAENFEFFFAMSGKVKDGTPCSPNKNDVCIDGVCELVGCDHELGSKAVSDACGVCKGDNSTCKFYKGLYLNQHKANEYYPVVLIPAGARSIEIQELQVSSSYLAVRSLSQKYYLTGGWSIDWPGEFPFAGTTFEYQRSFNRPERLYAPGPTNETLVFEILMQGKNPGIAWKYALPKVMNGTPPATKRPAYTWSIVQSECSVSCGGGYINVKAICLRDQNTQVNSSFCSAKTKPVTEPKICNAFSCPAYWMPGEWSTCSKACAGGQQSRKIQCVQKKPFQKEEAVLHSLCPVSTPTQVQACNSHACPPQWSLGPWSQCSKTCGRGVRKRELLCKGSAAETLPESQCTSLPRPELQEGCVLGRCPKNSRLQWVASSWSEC
The test is described as follows: 35S-labelled protein on gel filtered platelets, overnight at 4 C. Here is the method:
FIGS. 14A-C show the effect of ADAMTS-18 on oxidative platelet fragmentation and binding to platelets. […] Gel-filtered platelets were treated with Biotin-peptide (bp) as well as bp+streptavidin (str) and scrambled Biotinylated ADAMTS-18 peptide (scp) to induce integrin clustering, n=6. Platelet fragmentation was assessed by FACS as described in the examples section. […] CT (control IgG), Ab (patient IgG). 18-mer biotin-peptide was incubated with an anti-Biotin Ab, 1:200 dilution (gray bars) or irrelevant IgG white bars, n=6. Oxidation was assessed. […] Ctl refers to ³⁵S ribosomal-translation of luciferase. AD-CTD refers to ³⁵S-ribosomal translation of ADAMTS-18 with absent C-terminal 157 amino acids (13% deleted). There is an absence of binding with C-terminal deficient ADAMTS-18. 18 mer refers to 10 μM non-radioactive 18 mer peptide added with the ³⁵S-ADAMTS-18 incubation. Binding with C-terminal 18 mer peptide is inhibited. The amino acid sequence for the 18-mer peptide is (SEQ ID NO: 8): […]

As for B1, in test [1], the “platelet fragmentation of TFLLRN-activated platelets against platelets without prestimulation” value is roughly 22 fold.
As for B2, the binding result in test [2] is “no binding”.
